The results in this text go back to patent publication US8409825B2, “Method for high-level secretory production of protein” (National Institute of Advanced Industrial Science and …, priority 2007, dated 2013).

“And” between values parts separate entries of the source, which are not always exact repeats. Equal entries are not always repeated.

Holding throughout (format): biochemical
One data set concerns M. lysodeikticus. Nature of the data set: Bacteriolytic activity of secreted human lysozyme. The following applies: Table 3; for Bacteriolytic activity: culture supernatant, clones 1 to 3, 10 minutes at room temperature, absorbance at 450 nm; for Specific activity: per total amount of protein in culture supernatant, clones 1 to 3. An excerpt:
The expression vector for the aMF secretory signal-fused hLyz gene, onaP21808, was introduced into the ona01206 strain into which no chaperone combination was introduced, a strain that constitutively expresses a combination of O. minuta-derived chaperone genes; i.e., OmPDI1, OmERO1, and OmKar2, (i.e., the ona44607 strain), and a strain that constitutively expresses a combination of human-derived chaperone genes; i.e., synthetic hPDI, synthetic hERO1-Lβ, and synthetic hGRP78, (i.e., the ona68908 strain). Three clones were arbitrarily selected from the resulting colonies and cultured.
Also, bacteriolytic activity was assayed in the following manner. Bacteria of M. lysodeikticus was used as a substrate, and it was suspended in 50 mM phosphate buffer to prepare a substrate solution with a concentration of 0.16 mg/ml. To 240 μl of this substrate solution, 10 μl of a culture supernatant (the secreted human lysozyme) was added, and the mixture was incubated at room temperature for 10 minutes. Thereafter, the absorbance at 450 nm was assayed. […] Thus, a unit of lysozyme activity was defined as the amount of an enzyme that is necessary for the absorbance at 450 nm to be lowered by 0.001 per minute. Also, the total amount of proteins in the culture supernatant was assayed using the DC protein assay kit II (Bio-Rad, 500-0112JA) using bovine serum albumin as the standard.

Data set [1] addresses T1, human alpha-2,3-sialic acid transferase (ST3GalI) (Homo sapiens, UniProt Q11201).
T1 construct: The catalyst domain of the ST3GalI gene was first amplified via PCR; His6 (N); made in house; host or cells: Ogataea minuta TK10-1-2 derived strains (YT-2 to YT-7), with or without co-expressed O. minuta chaperones; culture supernatant used as crude enzyme
T1 sequence (Q11201 35-340 limits assumed): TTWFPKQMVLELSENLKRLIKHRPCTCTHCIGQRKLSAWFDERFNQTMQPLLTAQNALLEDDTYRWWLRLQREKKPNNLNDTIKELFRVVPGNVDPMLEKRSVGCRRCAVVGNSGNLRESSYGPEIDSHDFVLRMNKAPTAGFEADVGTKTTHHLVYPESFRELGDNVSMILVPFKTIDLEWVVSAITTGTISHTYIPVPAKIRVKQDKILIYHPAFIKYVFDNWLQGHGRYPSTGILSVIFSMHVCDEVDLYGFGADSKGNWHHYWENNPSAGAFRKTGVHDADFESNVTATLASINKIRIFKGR
Briefly: Sialic acid transferase (ST3GalI) enzyme activity assay of crude enzyme solution, HPLC, core 1-pNP substrate. The following applies: for Specific activity: Table 1, culture supernatant equivalent to 10 μU, EndoHf treated, Western blot signal intensity; for Activity: Table 2, culture supernatant, assayed with the elapse of time. How it is done:
The YT-2 strain and the YT-3 strain were inoculated in 5 ml of YPAD+KCl medium (2% polypeptone, 1% yeast extract, 2% glucose, adenine (40 mg/l), 0.3 M potassium chloride), and preculture was carried out at 30° C. overnight. Subsequently, 1 ml of a preculture solution was inoculated in 150 ml of YPAD+KCl medium, and culture was carried out at 30° C. for 48 hours. The strains were recovered, resuspended in 100 ml of BMMY+2% casamino acid medium (1% yeast extract, 2% polypeptone, 1.34% Yeast Nitrogen Base without amino acids (Difco), 0.1 M KPi (pH 6.0), 2% casamino acid, 1% methanol), and cultured at 20° C. for 96 hours. Methanol was added to a concentration of 0.5% every 12 hours. After the completion of culture, the culture product was subjected to centrifugation to remove yeast cells, and the resulting solution was designated as a crude enzyme solution.
Enzyme activity was assayed in the following manner. A crude enzyme solution (2 μl) was added to 18 μl of a reaction solution (0.1 M Tris-HCl (pH 7.5), 1 mM MnCl2, 5 mM CMP-NeuAc, 50 μM core 1-pNP), and the reaction was initiated. After the reaction was carried out at 37° C. for 30 minutes, the reaction was terminated via boiling, and HPLC analysis was carried out. A Cosmosil 5C18-ARII column (4.6×250 mm, Nacalai Tesque, Inc.) was used, and a mixture of 0.2 M triethylamine-acetic acid (pH 7.0, solution A) and acetonitrile (solution B) (solution A:solution B=9:1) was used as a mobile phase. The column was equilibrated, the sample was injected therein, and elution was carried out 20 minutes thereafter. Detection was carried out using a UV detector (detection wavelength: 300 nm). A core1-pNP substrate was eluted 14.5 minutes later, and a reaction product, sialylcore1-pNP, was eluted 17 minutes later. The reaction product was quantified based on the peak area, and the result was designated as activity (U). The unit “1 U” was defined as the amount of an enzyme that is necessary to produce 1 μmol of the reaction product per minute.
Western blot analysis was then carried out. The culture supernatants in amounts equivalent to “10 μU” of the YT-2 strain and the YT-3 strain were subjected to treatment with EndoHf (NEB, P0703S) in accordance with the protocol, applied, and then subjected to SDS-PAGE. After electrophoresis, the product was transferred to a PVDF membrane, and Western blotting was carried out in accordance with a conventional technique. A mouse anti-FLAG M2 antibody (Sigma, F1804) was used as a primary antibody and an anti-mouse IgG antibody-alkaline phosphatase composite was used as a secondary antibody. Detection was carried out using CDP-Star and an image analyzer, LAS1000 (Fujifilm Corporation). Further, signals were quantified using Image Gauge (Fujifilm Corporation).
The expression vector for various chaperone gene combinations derived from O. minuta prepared in Example 4 was introduced into the YT-1 strain of Example 17. In the same manner as in Example 16, plasmids were cleaved with NotI to transform the YT-1 strain. After transformation, the resultant was applied on SD-Ura medium (2% glucose, 0.17% Yeast Nitrogen Base without amino acids (Difco), nucleic acid bases except for uracil, and amino acid mixture (20 to 400 mg/l)) and culture was carried out at 30° C. for 2 days. Whether or not the expression vector was incorporated into a chromosome was confirmed via colony PCR described in Example 5, an expressed strain having a coexpression vector (onaP09407) carrying two copies of the OmPDI1 expression cassette was designated as the YT-4 strain, an expressed strain having a coexpression vector (onaP09707) for OmPDI1 and OmKar2 was designated as the YT-5 strain, an expressed strain having a coexpression vector (onaP09507) for OmPDI1 and OmERO1 was designated as the YT-6 strain, and an expressed strain having a coexpression vector (onaP09607) for OmPDI1 and OmHSP104 was designated as the YT-7 strain. […]

The target in data set [2] is T1, human alpha-2,3-sialic acid transferase (ST3GalI). The description is as above. The following applies: Table 2, 30 μl culture supernatant, Western blot signal intensity, with the elapse of time. Background: In western blotting, separated proteins are transferred to a membrane and probed.

For the molecule “Ona01206: secreted human lysozyme sample from strain into which no chaperone combination was introduced”, in the data set on M. lysodeikticus, the Bacteriolytic activity is 23.0 unit/ml and 22.3 unit/ml and 22.0 unit/ml; the Specific activity was 0.45 unit/mg and 0.42 unit/mg and 0.43 unit/mg.

As to “Ona44607: secreted human lysozyme sample from strain constitutively expressing OmPDI1, OmERO1, and OmKar2”, in the data set with M. lysodeikticus, the Bacteriolytic activity was 33.3 unit/ml and 34.0 unit/ml; the Specific activity is 0.67 unit/mg and 0.65 unit/mg.

B1: YT-3: ST3GalI crude enzyme solution from O. minuta strain into which OmPDI1 (onaP03606) had been introduced (protein, UniProt Q11201 1-340, looked up)
CMP-N-acetylneuraminate-beta-g …: MVTLRKRTLKVLTFLVLFIFLTSFFLNYSHTMVATTWFPKQMVLELSENLKRLIKHRPCTCTHCIGQRKLSAWFDERFNQTMQPLLTAQNALLEDDTYRWWLRLQREKKPNNLNDTIKELFRVVPGNVDPMLEKRSVGCRRCAVVGNSGNLRESSYGPEIDSHDFVLRMNKAPTAGFEADVGTKTTHHLVYPESFRELGDNVSMILVPFKTIDLEWVVSAITTGTISHTYIPVPAKIRVKQDKILIYHPAFIKYVFDNWLQGHGRYPSTGILSVIFSMHVCDEVDLYGFGADSKGNWHHYWENNPSAGAFRKTGVHDADFESNVTATLASINKIRIFKGR
For the molecule B1, in data set [1] (96 hours later, FIG. 15), the “difference in the expression levels (enzyme activity) compared with YT-2” value is listed as “approximately 3.4 times”. Besides, the Specific activity in data set [1] is 3.36 pU/AU. The “elevation of the specific activity by introduction of OmPDI1” value in data set [1] (YT-3 versus YT-2) is listed as “approximately 1.6 times”.

B2: YT-7: ST3GalI culture supernatant from strain coexpressing OmPDI1 and OmHSP104 (protein, UniProt Q11201 1-340, looked up)
CMP-N-acetylneuraminate-beta-g …: MVTLRKRTLKVLTFLVLFIFLTSFFLNYSHTMVATTWFPKQMVLELSENLKRLIKHRPCTCTHCIGQRKLSAWFDERFNQTMQPLLTAQNALLEDDTYRWWLRLQREKKPNNLNDTIKELFRVVPGNVDPMLEKRSVGCRRCAVVGNSGNLRESSYGPEIDSHDFVLRMNKAPTAGFEADVGTKTTHHLVYPESFRELGDNVSMILVPFKTIDLEWVVSAITTGTISHTYIPVPAKIRVKQDKILIYHPAFIKYVFDNWLQGHGRYPSTGILSVIFSMHVCDEVDLYGFGADSKGNWHHYWENNPSAGAFRKTGVHDADFESNVTATLASINKIRIFKGR
Consider B2, for which the Activity in data set [1] (listed as YT-7-1) worked out at 1.28 mU/ml; in data set [1] (listed as YT-7-2) it was 2.98 mU/ml; in data set [1] (listed as YT-7-3), 3.45 mU/ml; in data set [1] (listed as YT-7-4) it was 3.65 mU/ml. For the same molecule, the Specific activity in data set [2] (listed as YT-7-1) was 11.4 pU/AU; in data set [2] (listed as YT-7-2), 27.9 pU/AU; in data set [2] (listed as YT-7-3) it was 42.5 pU/AU; in data set [2] (listed as YT-7-4), 57.3 pU/AU.

B3: YT-2: ST3GalI crude enzyme solution from O. minuta strain with control plasmid pOMexGP1U, no OmPDI1 (protein, UniProt Q11201 1-340, looked up)
CMP-N-acetylneuraminate-beta-g …: MVTLRKRTLKVLTFLVLFIFLTSFFLNYSHTMVATTWFPKQMVLELSENLKRLIKHRPCTCTHCIGQRKLSAWFDERFNQTMQPLLTAQNALLEDDTYRWWLRLQREKKPNNLNDTIKELFRVVPGNVDPMLEKRSVGCRRCAVVGNSGNLRESSYGPEIDSHDFVLRMNKAPTAGFEADVGTKTTHHLVYPESFRELGDNVSMILVPFKTIDLEWVVSAITTGTISHTYIPVPAKIRVKQDKILIYHPAFIKYVFDNWLQGHGRYPSTGILSVIFSMHVCDEVDLYGFGADSKGNWHHYWENNPSAGAFRKTGVHDADFESNVTATLASINKIRIFKGR
In the case of B3, the Specific activity in data set [1] is 2.13 pU/AU.

B4: YT-5: ST3GalI culture supernatant from strain coexpressing OmPDI1 and OmKar2 (protein, UniProt Q11201 1-340, looked up)
CMP-N-acetylneuraminate-beta-g …: MVTLRKRTLKVLTFLVLFIFLTSFFLNYSHTMVATTWFPKQMVLELSENLKRLIKHRPCTCTHCIGQRKLSAWFDERFNQTMQPLLTAQNALLEDDTYRWWLRLQREKKPNNLNDTIKELFRVVPGNVDPMLEKRSVGCRRCAVVGNSGNLRESSYGPEIDSHDFVLRMNKAPTAGFEADVGTKTTHHLVYPESFRELGDNVSMILVPFKTIDLEWVVSAITTGTISHTYIPVPAKIRVKQDKILIYHPAFIKYVFDNWLQGHGRYPSTGILSVIFSMHVCDEVDLYGFGADSKGNWHHYWENNPSAGAFRKTGVHDADFESNVTATLASINKIRIFKGR
For B4, the Activity is on record as 1.29 mU/ml in data set [1] (listed as YT-5-1), 2.07 mU/ml in data set [1] (listed as YT-5-2), 1.86 mU/ml in data set [1] (listed as YT-5-3) and 2.29 mU/ml in data set [1] (listed as YT-5-4). The Specific activity in data set [2] (listed as YT-5-1) worked out at 10.7 pU/AU; in data set [2] (listed as YT-5-2), 15.8 pU/AU; in data set [2] (listed as YT-5-3) it was 12.3 pU/AU; in data set [2] (listed as YT-5-4), 14.9 pU/AU.
